Source: PMC4439613, “TRIP13 is a protein-remodeling AAA+ ATPase that catalyzes MAD2 conformation switching” (eLife, 2015)

What was measured:
[1] = target: C. elegans MAD-2 (MDF-2) (C. elegans); test: SEC-MALS; single purified proteins on Superdex 200 10/300 GL; PCH-2 and TRIP13 with and without added nucleotides
[2] = target: the molecule itself; test: as above
[3] = target: T1, His6-tagged M. musculus p31(comet) (M. musculus, UniProt Q9DCX1 1-276); test: pull-down; Ni2+ pull-down: 300 pmol His6-tagged p31(comet) with 450 pmol untagged MAD2 in 50 μl (20 mM Tris-HCl pH 7.5 or 8.5, 200 mM NaCl, 20 mM imidazole, 0.1% NP-40), 20°C, Ni-NTA magnetic beads, Coomassie; conditions: both partners purified
T1 construct: p31(comet), M. musculus, full length; The same construct as m12 with the TEV-cleavable His6 tag left on for the Ni2+ pull-down; also called His6-tagged p31(comet); source: E. coli Rosetta 2 (DE3) pLysS, purified; not shown: His6, N-terminal, kept
T1 sequence (looked up): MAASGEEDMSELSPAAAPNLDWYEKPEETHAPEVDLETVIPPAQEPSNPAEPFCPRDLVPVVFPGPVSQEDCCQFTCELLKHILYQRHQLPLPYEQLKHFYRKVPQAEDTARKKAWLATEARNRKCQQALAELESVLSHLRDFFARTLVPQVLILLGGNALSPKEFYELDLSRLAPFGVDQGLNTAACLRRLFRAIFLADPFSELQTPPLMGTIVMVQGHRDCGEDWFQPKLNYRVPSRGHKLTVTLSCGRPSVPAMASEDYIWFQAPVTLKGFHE

[4] = target: T2, M. musculus p31(comet) (wild type, tag cleaved) (M. musculus, UniProt Q9DCX1 1-276); test: SEC; as a8 but mixtures of two of the three proteins (one left out); conditions: both partners purified
T2 construct: p31(comet), M. musculus, full length; also called wild-type p31(comet); source: E. coli Rosetta 2 (DE3) pLysS, purified (Ni-NTA, Hitrap Q ion exchange, Superdex 200 SEC); not shown: His6, N-terminal, cleaved
T2 sequence (looked up): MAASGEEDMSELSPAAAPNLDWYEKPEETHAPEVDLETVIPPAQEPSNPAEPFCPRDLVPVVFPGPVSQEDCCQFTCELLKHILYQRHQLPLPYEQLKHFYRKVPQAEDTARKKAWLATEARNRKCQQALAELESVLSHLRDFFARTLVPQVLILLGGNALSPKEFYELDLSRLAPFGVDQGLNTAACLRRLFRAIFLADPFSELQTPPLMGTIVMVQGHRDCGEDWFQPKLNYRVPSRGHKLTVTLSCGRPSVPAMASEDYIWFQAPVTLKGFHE

[5] = substrate: Nc1ncnc2c1ncn2[C@@H]1O[C@H](COP(=O)(O)OP(=O)(O)OP(=O)(O)O)[C@@H](O)[C@H]1O; test: enzyme-coupled ATPase assay (pyruvate kinase / lactate dehydrogenase, NADH); assay type: biochemical, Mus musculus; conditions: basal, pH 8.5, 27 °C, 10 mM MgCl2, 200 mM NaCl, kcat per hexamer
[6] = substrate: Nc1ncnc2c1ncn2[C@@H]1O[C@H](COP(=O)(O)OP(=O)(O)OP(=O)(O)O)[C@@H](O)[C@H]1O; test: as above; assay type: biochemical, Caenorhabditis elegans; conditions: basal, pH 8.5, 27 °C, 10 mM MgCl2, 200 mM NaCl, kcat per hexamer
[7] = substrate: Nc1ncnc2c1ncn2[C@@H]1O[C@H](COP(=O)(O)OP(=O)(O)OP(=O)(O)O)[C@@H](O)[C@H]1O; test: as above; assay type: biochemical, Caenorhabditis elegans; conditions: basal, pH 8.5, 27 °C, 10 mM MgCl2, 200 mM NaCl, kcat per hexamer; remark: listed apart in the source
From the text: enzyme-coupled ATPase assay (pyruvate kinase / lactate dehydrogenase, NADH) on PCH-2 | the kcat of PCH-2^W221A around threefold higher than that of the wild-type enzyme

[8] = target: the molecule itself; test: SEC; PCH-2 pore loop mutants compared with wild type on a size-exclusion column

## C. elegans MAD-2 (MDF-2) (natural protein)
[1]
  stoichiometry N: 2

B1: M. musculus MAD2 (wild type) (natural protein, UniProt Q9Z1B5 1-205, looked up)
chain: MAQQLAREQGITLRGSAEIVAEFFSFGINSILYQRGIYPSETFTRVQKYGLTLLTTTDPELIKYLNNVVEQLKEWLYKCSVQKLVVVISNIESGEVLERWQFDIECDKTAKEEGVRREKSQKAIQDEIRSVIRQITATVTFLPLLEVSCSFDLLIYTDKDLVVPEKWEESGPQFITNCEEVRLRSFTTTIHKVNSMVAYKTPVND
notes: MAD2, M. musculus, full length; Predominantly dimeric by SEC-MALS; also called WT MAD2; wild-type MAD2 dimer; source: E. coli Rosetta 2 (DE3) pLysS, purified (Ni-NTA, Hitrap Q ion exchange, Superdex 200 SEC); not shown: His6, N-terminal, cleaved
[2]
  stoichiometry N: 2
[3]
  binding result: binds

B2: M. musculus C-MAD2^R133A (closed conformer of the monomeric MAD2 R133A variant) (natural protein, UniProt Q9Z1B5 1-205, looked up)
chain: MAQQLAREQGITLRGSAEIVAEFFSFGINSILYQRGIYPSETFTRVQKYGLTLLTTTDPELIKYLNNVVEQLKEWLYKCSVQKLVVVISNIESGEVLERWQFDIECDKTAKEEGVRREKSQKAIQDEIRSVIAQITATVTFLPLLEVSCSFDLLIYTDKDLVVPEKWEESGPQFITNCEEVRLRSFTTTIHKVNSMVAYKTPVND
notes: MAD2, M. musculus, full length, dimerization-defective mutation R133A; the closed conformer, purified apart from the open one by anion exchange; also called closed MAD2; source: E. coli Rosetta 2 (DE3) pLysS, purified; closed conformer peak separated by anion exchange; not shown: His6, N-terminal, cleaved
[4]
  binding result: binds

B3: Mus musculus TRIP13 (enzyme, M. musculus, UniProt Q3UA06 1-432, looked up)
chain: MDEAVGDLKQALPCVAESPAVHVEVLQRSGSTAKKEDIKSSVYRLLNRHNIVFGDYVWTEFDDPFLSRNVQSVSIVDTELKAKDPQPIDLSACTIALHIFQLNEEGPSSENLDEETENIIAASHWVLPAAEFHGLWDSLVYDVEVKSHLLDYVMTTVLFSDKNVDSNLITWNRVVLLHGPPGTGKTSLCKALAQKLTIRLSSRYRYGQLIEINSHSLFSKWFSESGKLVTKMFQKIQDLIDDKEALVFVLIDEVESLTAARNACRAGAEPSDAIRVVNAVLTQIDQIKRHSNVVILTTSNITEKIDVAFVDRADIKQYIGPPSAAAIFKIYLSCLEELMKCQIIYPRQQLLTLRELEMIGFIENNVSKLSLLLSEISRKSEGLSGRVLRKLPFLAHALYIQAPSVTIEGFLQALSLAVDKQFEEKKKLSAYV
notes: TRIP13, M. musculus, full length; Mixture of oligomeric states from monomer to hexamer by SEC-MALS; also called wild-type TRIP13; source: E. coli Rosetta 2 (DE3) pLysS, purified (Ni-NTA, Hitrap Q ion exchange, Superdex 200 SEC); not shown: His6, N-terminal, cleaved
[5]
  Km: 13.9 ± 0.6 µM
  kcat: 8.7 +/- 0.1 ATP min^-1
[2]
  stoichiometry N: ≤ 6

B4: M. musculus TRIP13^E253Q (enzyme, UniProt Q3UA06 1-432, looked up)
chain: MDEAVGDLKQALPCVAESPAVHVEVLQRSGSTAKKEDIKSSVYRLLNRHNIVFGDYVWTEFDDPFLSRNVQSVSIVDTELKAKDPQPIDLSACTIALHIFQLNEEGPSSENLDEETENIIAASHWVLPAAEFHGLWDSLVYDVEVKSHLLDYVMTTVLFSDKNVDSNLITWNRVVLLHGPPGTGKTSLCKALAQKLTIRLSSRYRYGQLIEINSHSLFSKWFSESGKLVTKMFQKIQDLIDDKEALVFVLIDQVESLTAARNACRAGAEPSDAIRVVNAVLTQIDQIKRHSNVVILTTSNITEKIDVAFVDRADIKQYIGPPSAAAIFKIYLSCLEELMKCQIIYPRQQLLTLRELEMIGFIENNVSKLSLLLSEISRKSEGLSGRVLRKLPFLAHALYIQAPSVTIEGFLQALSLAVDKQFEEKKKLSAYV
notes: TRIP13, M. musculus, full length, Walker B mutation E253Q; also called Walker B mutant; ATP hydrolysis-defective TRIP13; source: E. coli Rosetta 2 (DE3) pLysS, purified (Ni-NTA, Hitrap Q ion exchange, Superdex 200 SEC); not shown: His6, N-terminal, cleaved
[2]
  stoichiometry N: 6

B5: TRIP13 (Mus musculus; W221A) (protein)
chain: MDEAVGDLKQALPCVAESPAVHVEVLQRSGSTAKKEDIKSSVYRLLNRHNIVFGDYVWTEFDDPFLSRNVQSVSIVDTELKAKDPQPIDLSACTIALHIFQLNEEGPSSENLDEETENIIAASHWVLPAAEFHGLWDSLVYDVEVKSHLLDYVMTTVLFSDKNVDSNLITWNRVVLLHGPPGTGKTSLCKALAQKLTIRLSSRYRYGQLIEINSHSLFSKAFSESGKLVTKMFQKIQDLIDDKEALVFVLIDEVESLTAARNACRAGAEPSDAIRVVNAVLTQIDQIKRHSNVVILTTSNITEKIDVAFVDRADIKQYIGPPSAAAIFKIYLSCLEELMKCQIIYPRQQLLTLRELEMIGFIENNVSKLSLLLSEISRKSEGLSGRVLRKLPFLAHALYIQAPSVTIEGFLQALSLAVDKQFEEKKKLSAYV
notes: full-length, N-terminal His6 tag removed with TEV protease, E. coli Rosetta 2 (DE3) pLysS
[5]
  Km: 24.4 ± 1.3 µM
  kcat: 18.7 +/- 0.2 ATP min^-1

B6: Caenorhabditis elegans PCH-2 (enzyme, C. elegans, UniProt Q09535 1-424, looked up)
chain: MHEPMKTLKNIHAEIRICQKFPKSTVQKRFSEFEELIKAASKNARNWKPISSVELFQGDSSLNELFEKLVIGTCELRDGELFENVNDLTINPSNIHVYKLHKDGPLSQNIGDDDGDESIIGSQLWQLPCVEFDSIWENLIYDSNLKNEVMSYVAALARLSEKHVNTKIINVNRLILLTGPPGTGKTSLCKGLAQHLSIRMNDKYSKSVMLEINSHSLFSKWFSESGKLVQKMFDQIDELAEDEKCMVFVLIDEVESLGMCRESSSSRSEPSDAIRAVNALLTQIDRIRRRDNVLILCTSNLESTLDKALVDRADIVKNVGQPSDFARYSMLKSSIMELARIGVVIDNEVHTDYWPQDICDTKAPRNEFTEILFKIAQEARGLSGRAISMLPTLVYSKSPEETITLPNCMNLFLEAVKERLSRNN
notes: PCH-2 (TRIP13 ortholog), C. elegans, full length, 424 residues; Selenomethionine-derivatised protein was used for phasing only; two subunits of the hexamer carry ADP in the crystal; also called C. elegans TRIP13 ortholog; wild-type PCH-2; source: E. coli Rosetta 2 (DE3) pLysS, purified (Ni-NTA, Hitrap Q ion exchange, Superdex 200 SEC); not shown: His6, N-terminal, cleaved
[6]
  Km: 9.5 ± 1.3 µM
  kcat: 56.0 +/- 1.5 ATP min^-1
[2]
  stoichiometry N: 6

B7: C. elegans PCH-2^W221A (enzyme, UniProt Q09535 1-424, looked up)
chain: MHEPMKTLKNIHAEIRICQKFPKSTVQKRFSEFEELIKAASKNARNWKPISSVELFQGDSSLNELFEKLVIGTCELRDGELFENVNDLTINPSNIHVYKLHKDGPLSQNIGDDDGDESIIGSQLWQLPCVEFDSIWENLIYDSNLKNEVMSYVAALARLSEKHVNTKIINVNRLILLTGPPGTGKTSLCKGLAQHLSIRMNDKYSKSVMLEINSHSLFSKAFSESGKLVQKMFDQIDELAEDEKCMVFVLIDEVESLGMCRESSSSRSEPSDAIRAVNALLTQIDRIRRRDNVLILCTSNLESTLDKALVDRADIVKNVGQPSDFARYSMLKSSIMELARIGVVIDNEVHTDYWPQDICDTKAPRNEFTEILFKIAQEARGLSGRAISMLPTLVYSKSPEETITLPNCMNLFLEAVKERLSRNN
notes: PCH-2, C. elegans, full length, pore loop mutation W221A; also called pore loop mutant W221A; source: E. coli Rosetta 2 (DE3) pLysS, purified (Ni-NTA, Hitrap Q ion exchange, Superdex 200 SEC); not shown: His6, N-terminal, cleaved
[7]
  Km: 28.3 ± 1.9 µM
  kcat: 168.7 +/- 2.3 ATP min^-1
[8]
  stoichiometry N: 6

B8: C. elegans PCH-2^F222A (enzyme, UniProt Q09535 1-424, looked up)
chain: MHEPMKTLKNIHAEIRICQKFPKSTVQKRFSEFEELIKAASKNARNWKPISSVELFQGDSSLNELFEKLVIGTCELRDGELFENVNDLTINPSNIHVYKLHKDGPLSQNIGDDDGDESIIGSQLWQLPCVEFDSIWENLIYDSNLKNEVMSYVAALARLSEKHVNTKIINVNRLILLTGPPGTGKTSLCKGLAQHLSIRMNDKYSKSVMLEINSHSLFSKWASESGKLVQKMFDQIDELAEDEKCMVFVLIDEVESLGMCRESSSSRSEPSDAIRAVNALLTQIDRIRRRDNVLILCTSNLESTLDKALVDRADIVKNVGQPSDFARYSMLKSSIMELARIGVVIDNEVHTDYWPQDICDTKAPRNEFTEILFKIAQEARGLSGRAISMLPTLVYSKSPEETITLPNCMNLFLEAVKERLSRNN
notes: PCH-2, C. elegans, full length, pore loop mutation F222A; also called pore loop mutant F222A; source: E. coli Rosetta 2 (DE3) pLysS, purified (Ni-NTA, Hitrap Q ion exchange, Superdex 200 SEC); not shown: His6, N-terminal, cleaved
[6]
  Km: 19.3 ± 0.8 µM
  kcat: 11.7 +/- 0.1 ATP min^-1
[8]
  stoichiometry N: 6

B9: C. elegans PCH-2 'pore loop AG' mutant (enzyme, UniProt Q09535 1-424, looked up)
chain: MHEPMKTLKNIHAEIRICQKFPKSTVQKRFSEFEELIKAASKNARNWKPISSVELFQGDSSLNELFEKLVIGTCELRDGELFENVNDLTINPSNIHVYKLHKDGPLSQNIGDDDGDESIIGSQLWQLPCVEFDSIWENLIYDSNLKNEVMSYVAALARLSEKHVNTKIINVNRLILLTGPPGTGKTSLCKGLAQHLSIRMNDKYSKSVMLEINSHSLAGAAGAAAGALVQKMFDQIDELAEDEKCMVFVLIDEVESLGMCRESSSSRSEPSDAIRAVNALLTQIDRIRRRDNVLILCTSNLESTLDKALVDRADIVKNVGQPSDFARYSMLKSSIMELARIGVVIDNEVHTDYWPQDICDTKAPRNEFTEILFKIAQEARGLSGRAISMLPTLVYSKSPEETITLPNCMNLFLEAVKERLSRNN
notes: also called PCH-2^AG; source: E. coli Rosetta 2 (DE3) pLysS, purified (Ni-NTA, Hitrap Q ion exchange, Superdex 200 SEC); not shown: His6, N-terminal, cleaved
[6]
  Km: 20.2 ± 1.6 µM
  kcat: 85.4 +/- 1.2 ATP min^-1
[8]
  stoichiometry N: 6
